Results published in the supplement of paper PMC9112550, “Optimization of the antimicrobial peptide Bac7 by deep mutational scanning” (BMC Biology, 2022).

What follows are sequences tested on Escherichia coli TOP10 (assay: shrunken log2 fold change of peptide-encoding DNA abundance (4.5 h post-induction vs induction); higher = less antimicrobial activity (less host growth inhibition)). Conditions: time post-induction: 4.5 h; library: site-saturation at positions 5, 18, 19, 20.
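Also: peptides expressed intracellularly from a pBAD plasmid library in pooled LB shake-flask culture, induced with 0.3% L-arabinose, DNA abundance read by NGS, three biological replicates, DESeq2 with apeglm shrinkage.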

Row | Sequence | shrunken log2 fold change
1 | RRIRERPPRLPRPRPRPEFMPRP | -0.096
2 | RRIRRRPPRLPRPRPRPDSVPRP | 7.52e-05
3 | RRIRFRPPRLPRPRPRPLIQPRP | -0.289
4 | RRIRGRPPRLPRPRPRPREAPRP | 1.31
5 | RRIRWRPPRLPRPRPRPYEPPRP | -0.261
6 | RRIRHRPPRLPRPRPRPPKDPRP | 0.105
7 | RRIRSRPPRLPRPRPRPILYPRP | -0.481
8 | RRIRYRPPRLPRPRPRPNRCPRP | 0.00786
9 | RRIRHRPPRLPRPRPRPFPYPRP | -0.0859
10 | RRIRCRPPRLPRPRPRPIPFPRP | -0.436
11 | RRIRMRPPRLPRPRPRPVKFPRP | 0.0501
12 | RRIRLRPPRLPRPRPRPIRLPRP | -0.3
13 | RRIRPRPPRLPRPRPRPHYWPRP | -0.41
14 | RRIRCRPPRLPRPRPRPFDKPRP | -0.493
15 | RRIRIRPPRLPRPRPRPVIDPRP | -0.0443
16 | RRIRNRPPRLPRPRPRPSTTPRP | -0.47
17 | RRIRERPPRLPRPRPRPNTRPRP | -0.0785
18 | RRIRMRPPRLPRPRPRPQGCPRP | -0.00385
19 | RRIRCRPPRLPRPRPRPTWAPRP | 0.118
20 | RRIRPRPPRLPRPRPRPNGRPRP | -0.00968
21 | RRIRYRPPRLPRPRPRPNDAPRP | 0.011
22 | RRIRERPPRLPRPRPRPGSFPRP | 0.0492
23 | RRIRERPPRLPRPRPRPPNAPRP | 0.186
24 | RRIRFRPPRLPRPRPRPHLGPRP | 0.0424
25 | RRIRKRPPRLPRPRPRPVISPRP | -0.00841

Row | Sequence | shrunken log2 fold change
26 | RRIRTRPPRLPRPRPRPTYPPRP | 0.0247
27 | RRIRFRPPRLPRPRPRPKLLPRP | 0.0539
28 | RRIRKRPPRLPRPRPRPCIEPRP | -0.00715
29 | RRIRIRPPRLPRPRPRPPLNPRP | -0.227
30 | RRIRVRPPRLPRPRPRPPLDPRP | 0.433
31 | RRIRCRPPRLPRPRPRPVYAPRP | -0.515
32 | RRIRIRPPRLPRPRPRPSKYPRP | -1.12
33 | RRIRRRPPRLPRPRPRPARCPRP | 0.42
34 | RRIRDRPPRLPRPRPRPLEYPRP | 0.061
35 | RRIRCRPPRLPRPRPRPGNDPRP | 0.00582
36 | RRIRIRPPRLPRPRPRPFGMPRP | -0.498
37 | RRIRSRPPRLPRPRPRPHTEPRP | -0.599
38 | RRIRHRPPRLPRPRPRPKKPPRP | -0.125
39 | RRIRFRPPRLPRPRPRPRNNPRP | -0.381
40 | RRIRQRPPRLPRPRPRPGSIPRP | -0.218
41 | RRIRARPPRLPRPRPRPACNPRP | 0.089
42 | RRIRTRPPRLPRPRPRPPTSPRP | 0.345
43 | RRIRTRPPRLPRPRPRPPCAPRP | 0.308
44 | RRIRNRPPRLPRPRPRPIFFPRP | 0.0887
45 | RRIRSRPPRLPRPRPRPWEVPRP | 0.188
46 | RRIRDRPPRLPRPRPRPMVVPRP | -0.0202
47 | RRIRFRPPRLPRPRPRPYYPPRP | -1.19
48 | RRIRTRPPRLPRPRPRPFTMPRP | -0.348
49 | RRIRSRPPRLPRPRPRPQNRPRP | -0.106
50 | RRIRWRPPRLPRPRPRPWQNPRP | -0.159

Row | Sequence | shrunken log2 fold change
51 | RRIRRRPPRLPRPRPRPVKKPRP | 0.0447
52 | RRIRTRPPRLPRPRPRPNWNPRP | -0.335
53 | RRIRWRPPRLPRPRPRPFAQPRP | -0.0369
54 | RRIRIRPPRLPRPRPRPHESPRP | 0.0539
55 | RRIRTRPPRLPRPRPRPAFSPRP | 0.193
56 | RRIRFRPPRLPRPRPRPPWLPRP | 0.509
57 | RRIRDRPPRLPRPRPRPFQVPRP | -0.609
58 | RRIRIRPPRLPRPRPRPGRHPRP | 0.0231
59 | RRIRDRPPRLPRPRPRPFKIPRP | -0.249
60 | RRIRERPPRLPRPRPRPEPRPRP | 0.379
61 | RRIRERPPRLPRPRPRPCETPRP | -0.336
62 | RRIRWRPPRLPRPRPRPSVGPRP | 0.149
63 | RRIRTRPPRLPRPRPRPFYYPRP | -0.55
64 | RRIRERPPRLPRPRPRPHRHPRP | -0.18
65 | RRIRERPPRLPRPRPRPDCHPRP | -0.011
66 | RRIRKRPPRLPRPRPRPEDIPRP | -0.00208
67 | RRIRVRPPRLPRPRPRPITTPRP | -0.304
68 | RRIRLRPPRLPRPRPRPHSGPRP | -0.0238
69 | RRIRMRPPRLPRPRPRPSPHPRP | 0.18
70 | RRIRMRPPRLPRPRPRPCNTPRP | -0.238
71 | RRIRSRPPRLPRPRPRPDKRPRP | -0.198
72 | RRIRCRPPRLPRPRPRPRGGPRP | 0.508
73 | RRIRFRPPRLPRPRPRPDQSPRP | 0.0148
74 | RRIRGRPPRLPRPRPRPHNVPRP | 0.0498
75 | RRIRIRPPRLPRPRPRPSHRPRP | -0.276

Row | Sequence | shrunken log2 fold change
76 | RRIRCRPPRLPRPRPRPETLPRP | -0.193
77 | RRIRARPPRLPRPRPRPNEDPRP | 0.334
78 | RRIRARPPRLPRPRPRPTPVPRP | 0.696
79 | RRIRYRPPRLPRPRPRPFAVPRP | -1.09
80 | RRIRQRPPRLPRPRPRPPGYPRP | 0.225
81 | RRIRVRPPRLPRPRPRPFIEPRP | -0.468
82 | RRIRVRPPRLPRPRPRPNMKPRP | -0.524
83 | RRIRQRPPRLPRPRPRPFEPPRP | -0.238
84 | RRIRKRPPRLPRPRPRPFHIPRP | -0.025
85 | RRIRSRPPRLPRPRPRPPSWPRP | 0.482
86 | RRIRPRPPRLPRPRPRPGICPRP | -0.0417
87 | RRIRQRPPRLPRPRPRPQWIPRP | -0.0848
88 | RRIRTRPPRLPRPRPRPVTFPRP | -0.0266
89 | RRIRMRPPRLPRPRPRPINFPRP | -0.0648
90 | RRIRNRPPRLPRPRPRPCHHPRP | -1.21
91 | RRIRARPPRLPRPRPRPEGHPRP | 0.223
92 | RRIRRRPPRLPRPRPRPCVGPRP | -0.147
93 | RRIRDRPPRLPRPRPRPKDKPRP | 0.0636
94 | RRIRPRPPRLPRPRPRPPHCPRP | 0.388
95 | RRIRQRPPRLPRPRPRPFFLPRP | -0.376
96 | RRIRERPPRLPRPRPRPSGDPRP | -0.253
97 | RRIRQRPPRLPRPRPRPGANPRP | 0.17
98 | RRIRMRPPRLPRPRPRPSMKPRP | 0.0872
99 | RRIRCRPPRLPRPRPRPYCGPRP | -0.888
100 | RRIRVRPPRLPRPRPRPVYEPRP | -0.127

Row | Sequence | shrunken log2 fold change
101 | RRIRTRPPRLPRPRPRPCDKPRP | -0.138
102 | RRIRSRPPRLPRPRPRPLTCPRP | -0.114
103 | RRIRTRPPRLPRPRPRPNWCPRP | -0.0796
104 | RRIRMRPPRLPRPRPRPAELPRP | 0.604
105 | RRIRFRPPRLPRPRPRPIWDPRP | -0.319
106 | RRIRYRPPRLPRPRPRPTYQPRP | -0.00459
107 | RRIRARPPRLPRPRPRPELCPRP | 0.92
108 | RRIRFRPPRLPRPRPRPMMSPRP | -0.0228
109 | RRIRQRPPRLPRPRPRPRWSPRP | 0.231
110 | RRIRMRPPRLPRPRPRPFRTPRP | -0.21
111 | RRIRYRPPRLPRPRPRPGFMPRP | -0.279
112 | RRIRNRPPRLPRPRPRPIGRPRP | -0.0141
113 | RRIRWRPPRLPRPRPRPWNIPRP | -0.0879
114 | RRIRNRPPRLPRPRPRPGAYPRP | -0.00116
115 | RRIRPRPPRLPRPRPRPGTAPRP | 0.163
116 | RRIRMRPPRLPRPRPRPYTKPRP | -0.0606
117 | RRIRNRPPRLPRPRPRPINRPRP | -0.0423
118 | RRIRCRPPRLPRPRPRPKWQPRP | 0.0444
119 | RRIRVRPPRLPRPRPRPKVHPRP | -0.192
120 | RRIRHRPPRLPRPRPRPEVKPRP | 0.104
121 | RRIRLRPPRLPRPRPRPNKDPRP | -0.683
122 | RRIRDRPPRLPRPRPRPRQGPRP | 0.0779
123 | RRIRNRPPRLPRPRPRPWNYPRP | -0.101
124 | RRIRFRPPRLPRPRPRPYKQPRP | -0.83
125 | RRIRLRPPRLPRPRPRPPGIPRP | -0.383

Row | Sequence | shrunken log2 fold change
126 | RRIRVRPPRLPRPRPRPWTVPRP | -0.782
127 | RRIRPRPPRLPRPRPRPEQPPRP | 0.184
128 | RRIRRRPPRLPRPRPRPYQGPRP | -0.00892
129 | RRIRPRPPRLPRPRPRPDWFPRP | 0.0805
130 | RRIRDRPPRLPRPRPRPHVCPRP | -0.00727
131 | RRIRCRPPRLPRPRPRPSDCPRP | -0.387
132 | RRIRMRPPRLPRPRPRPLFCPRP | 0.188
133 | RRIRNRPPRLPRPRPRPWIAPRP | -0.135
134 | RRIRHRPPRLPRPRPRPTETPRP | 0.146
135 | RRIRWRPPRLPRPRPRPTGLPRP | 0.0239
136 | RRIRNRPPRLPRPRPRPQCLPRP | 0.197
137 | RRIRWRPPRLPRPRPRPQENPRP | -0.0785
138 | RRIRFRPPRLPRPRPRPQQNPRP | 0.383
139 | RRIRMRPPRLPRPRPRPQLLPRP | 0.0491
140 | RRIRDRPPRLPRPRPRPPCMPRP | -0.317
141 | RRIRKRPPRLPRPRPRPMTDPRP | 0.103
142 | RRIRRRPPRLPRPRPRPTKLPRP | 0.111
143 | RRIRPRPPRLPRPRPRPLRLPRP | 0.2
144 | RRIRCRPPRLPRPRPRPMQDPRP | -0.0947
145 | RRIRCRPPRLPRPRPRPCVLPRP | -0.7
146 | RRIRERPPRLPRPRPRPYRSPRP | -1.42
147 | RRIRCRPPRLPRPRPRPKLDPRP | 0.125
148 | RRIRMRPPRLPRPRPRPVHRPRP | 0.872
149 | RRIRDRPPRLPRPRPRPPQLPRP | 0.143
150 | RRIRWRPPRLPRPRPRPFNTPRP | -0.0751
